For series [1], the target named is T1, Alp7-14 complex (full length Alp14 mixed with full length Alp7) (S. pombe, UniProt O94534 1-809; Q9URY2 1-474, biotin on the AviTag (BirA ligase co-expressed to ensure biotinylation)).
T1 construct: Alp14 of S. pombe, full length, as the chain of m1; Alp7 of S. pombe, full length, as the chain of m2; also called Alp7/TACC-Alp14/TOG; source: each from Sf9 insect cells (baculovirus), purified, then mixed
T1 sequence (looked up) 1: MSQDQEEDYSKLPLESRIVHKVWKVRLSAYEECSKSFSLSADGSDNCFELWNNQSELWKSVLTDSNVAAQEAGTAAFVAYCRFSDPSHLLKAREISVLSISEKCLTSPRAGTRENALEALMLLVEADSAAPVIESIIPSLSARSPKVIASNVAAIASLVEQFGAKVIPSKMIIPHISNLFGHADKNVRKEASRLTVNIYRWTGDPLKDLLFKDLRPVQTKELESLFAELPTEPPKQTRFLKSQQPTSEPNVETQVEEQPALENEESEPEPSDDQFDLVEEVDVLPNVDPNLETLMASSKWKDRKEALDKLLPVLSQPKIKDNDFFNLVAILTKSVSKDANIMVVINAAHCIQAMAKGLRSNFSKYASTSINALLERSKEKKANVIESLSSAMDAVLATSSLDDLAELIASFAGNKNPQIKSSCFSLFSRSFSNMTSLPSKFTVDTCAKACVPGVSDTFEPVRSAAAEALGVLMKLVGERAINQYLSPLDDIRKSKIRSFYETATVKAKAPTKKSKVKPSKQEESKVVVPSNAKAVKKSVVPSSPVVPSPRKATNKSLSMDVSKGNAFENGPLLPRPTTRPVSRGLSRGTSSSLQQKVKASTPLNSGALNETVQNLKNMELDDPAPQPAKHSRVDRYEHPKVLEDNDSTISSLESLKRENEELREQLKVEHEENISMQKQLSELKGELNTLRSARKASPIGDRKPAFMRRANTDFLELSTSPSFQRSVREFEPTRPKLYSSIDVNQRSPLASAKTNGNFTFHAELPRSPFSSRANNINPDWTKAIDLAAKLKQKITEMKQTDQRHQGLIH
T1 sequence (looked up) 2: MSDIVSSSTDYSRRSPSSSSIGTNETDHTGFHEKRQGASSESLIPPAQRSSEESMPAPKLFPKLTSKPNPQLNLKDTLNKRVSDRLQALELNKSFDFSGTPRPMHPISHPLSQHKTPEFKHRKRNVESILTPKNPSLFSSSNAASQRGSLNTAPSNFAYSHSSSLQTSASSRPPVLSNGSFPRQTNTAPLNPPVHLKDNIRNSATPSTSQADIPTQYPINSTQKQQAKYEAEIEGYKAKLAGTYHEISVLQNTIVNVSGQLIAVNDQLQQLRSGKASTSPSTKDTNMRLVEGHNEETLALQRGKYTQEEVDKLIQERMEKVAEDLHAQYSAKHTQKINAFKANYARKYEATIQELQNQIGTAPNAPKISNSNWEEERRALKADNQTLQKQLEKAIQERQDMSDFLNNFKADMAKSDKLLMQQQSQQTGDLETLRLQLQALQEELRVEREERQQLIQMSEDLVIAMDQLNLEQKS
Description: glycerol gradient centrifugation; 5-40% glycerol gradient of purified Alp14, Alp7 and tubulin, alone or mixed; tubulin as GTP-tubulin where stated; fractions on SDS-PAGE with Coomassie staining. The note with it: both partners purified.

Series [2] addresses T2, Alp7 with Alp14-GFP (tip tracking Alp7-14 complexes) (S. pombe, UniProt O94534 1-809; Q9URY2 1-474, biotin on the AviTag (BirA ligase co-expressed to ensure biotinylation)).
T2 construct: Alp14 of S. pombe, as the chain of m9; Alp7 of S. pombe, full length, as the chain of m2; source: each from Sf9 insect cells (baculovirus), purified, added together to the assay
T2 sequence (looked up) 1: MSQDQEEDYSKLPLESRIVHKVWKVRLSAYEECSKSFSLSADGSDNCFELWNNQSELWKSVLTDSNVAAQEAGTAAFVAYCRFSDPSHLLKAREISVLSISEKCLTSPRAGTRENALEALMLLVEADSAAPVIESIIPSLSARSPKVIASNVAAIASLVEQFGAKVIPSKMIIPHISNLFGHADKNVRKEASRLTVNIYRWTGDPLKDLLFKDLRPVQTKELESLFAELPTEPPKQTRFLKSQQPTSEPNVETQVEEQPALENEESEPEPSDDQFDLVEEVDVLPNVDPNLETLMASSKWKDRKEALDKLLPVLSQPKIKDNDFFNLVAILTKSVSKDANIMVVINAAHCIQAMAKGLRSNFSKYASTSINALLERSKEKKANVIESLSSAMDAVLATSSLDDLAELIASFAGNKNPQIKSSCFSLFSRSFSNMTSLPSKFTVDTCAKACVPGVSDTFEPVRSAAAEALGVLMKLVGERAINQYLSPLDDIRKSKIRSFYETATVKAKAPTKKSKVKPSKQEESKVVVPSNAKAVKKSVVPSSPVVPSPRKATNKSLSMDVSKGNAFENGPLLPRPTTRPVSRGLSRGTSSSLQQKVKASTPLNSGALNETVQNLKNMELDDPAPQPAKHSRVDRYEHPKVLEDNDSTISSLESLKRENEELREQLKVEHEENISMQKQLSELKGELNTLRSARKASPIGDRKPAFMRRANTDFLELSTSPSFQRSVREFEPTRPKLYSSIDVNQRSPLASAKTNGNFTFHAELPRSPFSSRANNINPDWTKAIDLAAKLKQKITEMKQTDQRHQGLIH
T2 sequence (looked up) 2: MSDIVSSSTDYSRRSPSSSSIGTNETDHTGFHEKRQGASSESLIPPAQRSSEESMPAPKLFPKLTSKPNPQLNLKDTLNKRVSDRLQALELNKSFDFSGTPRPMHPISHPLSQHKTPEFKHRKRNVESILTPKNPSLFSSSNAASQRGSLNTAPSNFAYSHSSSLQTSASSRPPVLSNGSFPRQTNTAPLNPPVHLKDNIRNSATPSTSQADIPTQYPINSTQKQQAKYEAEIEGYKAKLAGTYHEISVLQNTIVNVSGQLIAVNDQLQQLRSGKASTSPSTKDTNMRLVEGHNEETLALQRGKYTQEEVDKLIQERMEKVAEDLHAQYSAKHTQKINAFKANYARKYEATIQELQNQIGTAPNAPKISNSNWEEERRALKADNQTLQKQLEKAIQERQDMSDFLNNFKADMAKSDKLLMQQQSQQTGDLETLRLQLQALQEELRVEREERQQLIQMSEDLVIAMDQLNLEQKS
Description: TIRF microscopy of Alp14-GFP on dynamic microtubules; dual-TIRF; MTs nucleated by immobilized Alexa488 labeled seeds using 6 μM S. pombe tubulin doped with 2.5% (150 nM) rhodamine labeled brain tubulin; Alp14-GFP without or with Alp7. The note with it: both partners purified.

Series [3] concerns the molecule itself. Description: DIC video microscopy of microtubule growth; addition of GTP-tubulin to plus and minus ends of MTs nucleated by axoneme fragments; growth rate against tubulin concentration, linear regression, apparent rate constants; 100 mM K-PIPES, 1 mM MgSO4, 2 mM EGTA, 1 mM DTT pH 6.9, 1 mM GTP, no glycerol, 25 °C.

B1: S. pombe single isoform (α1β) tubulin (complex)
chain 1: MREVISVHVGQAGVQIGNACWELYCLEHGIGPDGFPTENSEVHKNNSYLNDGFGTFFSETGQGKFVPRSIYVDLEPNVIDQVRTGPYKDLFHPEQMVTGKEDASNNYARGHYTVGKEMIDSVLERIRRMADNCSGLQGFLVFHSFGGGTGSGLGALLLERLNMEYGKKSNLQFSVYPAPQVSTSVVEPYNSVLTTHATLDNSDCTFMVDNEACYDICRRNLDIERPTYENLNRLIAQVVSSITASLRFAGSLNVDLNEFQTNLVPYPRIHFPLVTYSPIVSAAKAFHESNSVQEITNQCFEPYNQMVKCDPRTGRYMATCLLYRGDVIPRDVQAAVTSIKSRRTIQFVDWCPTGFKIGICYEPPQHVPGSGIAKVNRAVCMLSNTTSIAEAWSRLDHKFDLMYSKRAFVHWYVGEGMEEGEFSEAREDLAALERDYEEVGQDSMDNEMYEADEEY
chain 2: MREIVHIQAGQCGNQVGAAFWSTIADEHGLDSAGIYHGTSEAQHERLNVYFNEAAGGKYVPRAVLVDLEPGTMDAVKSGKFGNLFRPDNIIYGQSGAGNIWAKGHYTEGAELADAVLDVVRREAEACDALQGFQLTHSLGGGTGSGMGTLLLSKIREEYPDRMMATFSVAPAPKSSDTVVEPYNATLSMHQLVENSDETFCIDNEALSSIFANTLKIKSPSYDDLNHLVSAVMAGVTTSFRFPGELNSDLRKLAVNMVPFPRLHFFMVGFAPLAAIGSSSFQAVSVPELTQQMFDANNMMVAADPRHGRYLTVAALFRGKVSMKEVDEQIRSVQTKNSAYFVEWIPDNVLKAVCSVPPKDLKMSATFIGNSTSIQEIFRRLGDQFSAMFRRKAFLHWYTGEGMDEMEFTEAESNMNDLVSEYQQYQEAGIDEGDEDYEIEEEKEPLEY
notes: alpha-1 tubulin of S. pombe, untagged, endogenous; beta tubulin of S. pombe, untagged, endogenous; Used as free heterodimer (GTP or GDP form) in the gradients and polymerised into dynamic microtubules in the microscopy assays; the assay's format tells which; also called single isoform S. pombe tubulin; S. pombe tubulin; source: purified from S. pombe single isoform strain (mmsp174): ion exchange, …
With B1, the binding result in series [1] is reported as “binds”. The binding result in series [2] is recorded as “binds”. Also, in series [3], the “Kd = koff/kon (critical concentration), minus end” value stood at 900 nM and the “Kd = koff/kon (critical concentration), plus end” value turned out to be 1200 nM.

For the origin of these results see article PMC4749977, “Alp7/TACC-Alp14/TOG generates long-lived, fast-growing MTs by an unconventional mechanism” (Scientific Reports, 2016).
